Assay results taken from patent publication US20130130922A1, “ANALYSIS OF METHYLATION SITES” (Centre for Addiction and Mental Health, priority 2011, published 2013).

Tested on: Control-H reference system (specific and nonspecific 200 bp DNA fragments from pBR322)
Test: mTAG labeling, biotinylation, capture on streptavidin beads and multiplex real-time PCR of Control-H reference system
Details: Control-H alone; Ado-11-amine cofactor; 228 nM enzyme; 37° C. 2 hours; percentage of material used for bead separation

B1: HpaII (Q104A/N335A): His6-tagged M.HpaII C5 DNA methyltransferase (CCGG target site) double-alanine mutant Q104A/N335A (protein, UniProt P15446 1-358, looked up, variant Q104A N335A)
Type II methyltransferase …: MKDVLDDNLLEEPAAQYSLFEPESNPNLREKFTFIDLFAGIGGFRIAMQNLGGKCIFSSEWDEQAQKTYEANFGDLPYGDITLEETKAFIPEKFDILCAGFPCAAFSIAGKRGGFEDTRGTLFFDVAEIIRRHQPKAFFLENVKGLKNHDKGRTLKTILNVLREDLGYFVPEPAIVNAKNFGVPQNRERIYIVGFHKSTGVNSFSYPEPLDKIVTFADIREEKTVPTKYYLSTQYIDTLRKHKERHESKGNGFGYEIIPDDGIANAIVVGGMGRERNLVIDHRITDFTPTTNIKGEVNREGIRKMTPREWARLQGFPDSYVIPVSDASAYKQFGASVAVPAIQATGKKILEKLGNLYD
modifications: His6 tag
- level of nonspecific probe found on beads: 5-6%
- yield of unmethylated (specific) probe recovered on beads: 50-60%
